Results published in patent publication US20140087995A1 (published 2014).
Numbered stars: 1 amine (or outer) side, 2 acyl side, 3 side chain; on linkers, the order of the positions; unused ones are H or OH. Bridge positions count the residues as written; N and C are the ends. Side chains are listed from the residue outwards. Ends that are not written are not given here. * marks the point of attachment. C20 diacid = O=C(O)CCCCCCCCCCCCCCCCCCC(=O)*; γGlu = O=C(O)[C@H](CCC(=O)[*:2])N[*:1]

T1: human calcitonin receptor (human, UniProt P30988 25-474)
T1 sequence (looked up): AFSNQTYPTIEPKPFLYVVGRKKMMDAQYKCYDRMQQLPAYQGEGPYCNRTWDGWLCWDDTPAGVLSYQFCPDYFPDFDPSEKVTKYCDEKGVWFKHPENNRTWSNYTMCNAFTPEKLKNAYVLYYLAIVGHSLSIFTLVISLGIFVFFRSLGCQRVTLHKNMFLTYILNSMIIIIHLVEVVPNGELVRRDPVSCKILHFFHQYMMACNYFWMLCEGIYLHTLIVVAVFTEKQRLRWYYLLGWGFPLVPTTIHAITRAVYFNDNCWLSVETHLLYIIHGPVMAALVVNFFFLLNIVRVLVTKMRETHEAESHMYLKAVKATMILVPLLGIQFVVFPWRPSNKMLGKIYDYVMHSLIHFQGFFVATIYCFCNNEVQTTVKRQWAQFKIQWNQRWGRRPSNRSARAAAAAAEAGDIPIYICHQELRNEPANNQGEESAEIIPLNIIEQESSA

T2: human amylin receptor (amylin 3(a) receptor: human calcitonin receptor with RAMP-3) (human, UniProt P30988 25-474; O60896 24-148, limits assumed)
T2 construct: whole, on cells; Whole cells in the luciferase assay (Assay II a); also called hAmylin-R; hAmylinR
T2 sequence (looked up) 1: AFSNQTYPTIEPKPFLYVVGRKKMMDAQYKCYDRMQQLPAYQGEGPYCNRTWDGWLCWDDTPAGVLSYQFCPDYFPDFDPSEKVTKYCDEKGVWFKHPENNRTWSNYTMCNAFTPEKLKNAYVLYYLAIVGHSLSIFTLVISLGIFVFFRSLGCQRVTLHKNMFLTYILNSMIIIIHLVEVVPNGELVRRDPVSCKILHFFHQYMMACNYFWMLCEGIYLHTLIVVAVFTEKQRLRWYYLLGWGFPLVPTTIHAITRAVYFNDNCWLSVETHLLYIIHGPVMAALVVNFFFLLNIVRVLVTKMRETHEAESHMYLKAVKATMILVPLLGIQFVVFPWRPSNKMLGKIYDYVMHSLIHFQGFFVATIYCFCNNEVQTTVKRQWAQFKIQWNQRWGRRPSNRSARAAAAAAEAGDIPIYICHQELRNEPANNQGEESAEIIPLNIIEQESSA
T2 sequence (looked up) 2: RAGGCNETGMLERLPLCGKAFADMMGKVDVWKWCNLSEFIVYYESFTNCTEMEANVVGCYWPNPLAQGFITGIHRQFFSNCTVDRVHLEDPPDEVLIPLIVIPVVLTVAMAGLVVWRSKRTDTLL

T3: human amylin receptor (amylin 3(a) receptor: human calcitonin receptor plus RAMP-3) (human, UniProt P30988 25-474; O60896 24-148, limits assumed)
T3 sequence (looked up) 1: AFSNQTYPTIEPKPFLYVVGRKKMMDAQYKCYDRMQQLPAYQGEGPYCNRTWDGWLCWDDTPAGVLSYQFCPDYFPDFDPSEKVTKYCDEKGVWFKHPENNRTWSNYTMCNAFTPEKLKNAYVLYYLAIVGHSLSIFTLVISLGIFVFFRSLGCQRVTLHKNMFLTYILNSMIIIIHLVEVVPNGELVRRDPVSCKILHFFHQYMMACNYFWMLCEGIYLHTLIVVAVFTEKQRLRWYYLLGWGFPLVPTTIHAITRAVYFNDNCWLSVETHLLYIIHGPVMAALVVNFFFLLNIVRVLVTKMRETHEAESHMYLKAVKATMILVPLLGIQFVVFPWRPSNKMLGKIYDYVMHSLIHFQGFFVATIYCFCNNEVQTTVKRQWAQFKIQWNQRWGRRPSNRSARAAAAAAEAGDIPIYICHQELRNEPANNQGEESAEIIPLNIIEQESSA
T3 sequence (looked up) 2: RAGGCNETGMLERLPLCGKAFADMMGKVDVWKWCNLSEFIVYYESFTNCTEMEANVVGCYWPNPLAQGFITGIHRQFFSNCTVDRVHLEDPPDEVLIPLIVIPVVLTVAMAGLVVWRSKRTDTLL

T4: human calcitonin receptor (human, UniProt P30988 25-474)
T4 sequence (looked up): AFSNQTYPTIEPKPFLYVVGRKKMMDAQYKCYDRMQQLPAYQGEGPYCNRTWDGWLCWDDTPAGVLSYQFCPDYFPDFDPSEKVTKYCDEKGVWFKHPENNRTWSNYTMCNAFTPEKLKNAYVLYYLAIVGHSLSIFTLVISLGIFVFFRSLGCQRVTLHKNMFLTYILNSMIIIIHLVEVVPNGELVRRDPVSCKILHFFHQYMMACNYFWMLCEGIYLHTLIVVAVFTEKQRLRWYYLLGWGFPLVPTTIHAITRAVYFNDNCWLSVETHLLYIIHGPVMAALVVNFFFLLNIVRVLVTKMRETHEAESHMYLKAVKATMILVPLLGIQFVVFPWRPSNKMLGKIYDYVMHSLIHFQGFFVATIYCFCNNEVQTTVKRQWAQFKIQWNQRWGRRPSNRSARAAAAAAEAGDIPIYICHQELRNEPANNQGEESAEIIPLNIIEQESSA


Legend:
[1] = biological target: T1, human calcitonin receptor; assay: cell-based or functional assay
[2] = biological target: T2, human amylin receptor (amylin 3(a) …); assay: SPA competition binding on membranes of BHK cells with human calcitonin receptor + RAMP-3; displacement of 125I-rat amylin (Assay V)
Summary of the method: (§1)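 SPA beads + BHK amylin 3(a)/CRE-luc membranes, 35 ng/μL final; buffer 50 mM Hepes pH 7.4, 1 mM CaCl2, 5 mM MgCl₂, 0.1% OA, 0.02% Tween20. 120 min, 25° C, shaken; scintillation count. IC₅₀ by one-site binding competition fit, taken as receptor affinity.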

[3] = biological target: T3, human amylin receptor (amylin 3(a) …); assay: cell-based or functional assay
[4] = biological target: T4, human calcitonin receptor; assay: cell-based or functional assay; remark: listed apart in the source
[5] = biological target: T3, human amylin receptor (amylin 3(a) …); assay: SPA competition binding, membranes of Amylin 3(a)/CRE-luc BHK cells, displacement of 125I-rat amylin (Assay V)
Summary of the method: as §1

Row | Ratio hCT/hAmylin funct. [1] | hCTR funct. EC50 (pM) [1] | IC50 [2] | hAmylin-R funct. EC50 [3] | Ratio hCT/hAmylin funct. (hCTR EC50 against hAmylin-R EC50) [4] | hCTR funct. EC50 [4] | IC50 [5] | Binder
1 | 26 ratio | 8660 pM | 0.88 nM | – | – | – | – | K([γGlu-γGlu-C20 diacid])CNTATCATQRLANFLRHSSPNFGAIPSSTPVGPRTY-NH2 (disulfide 2-7; N-terminus assumed; SMILES CC[C@H](C)[C@H](NC(=O)[C@H](C)NC(=O)CNC(=O)[C@H](Cc1ccccc1)NC(=O)[C@H](CC(N)=O)NC(=O)[C@@H]1CCCN1C(=O)[C@H](CO)NC(=O)[C@H](CO)NC(=O)[C@H](Cc1c[nH]cn1)NC(=O)[C@H](CCCNC(=N)N)NC(=O)[C@H](CC(C)C)NC(=O)[C@H](Cc1ccccc1)NC(=O)[C@H](CC(N)=O)NC(=O)[C@H](C)NC(=O)[C@H](CC(C)C)NC(=O)[C@H](CCCNC(=N)N)NC(=O)[C@H](CCC(N)=O)NC(=O)[C@@H](NC(=O)[C@H](C)NC(=O)[C@@H]1CSSC[C@H](NC(=O)[C@@H](N)CCCCNC(=O)CC[C@H](NC(=O)CC[C@H](NC(=O)CCCCCCCCCCCCCCCCCCC(=O)O)C(=O)O)C(=O)O)C(=O)N[C@@H](CC(N)=O)C(=O)N[C@@H]([C@@H](C)O)C(=O)N[C@@H](C)C(=O)N[C@@H]([C@@H](C)O)C(=O)N1)[C@@H](C)O)C(=O)N1CCC[C@H]1C(=O)N[C@@H](CO)C(=O)N[C@@H](CO)C(=O)N[C@H](C(=O)N1CCC[C@H]1C(=O)N[C@H](C(=O)NCC(=O)N1CCC[C@H]1C(=O)N[C@@H](CCCNC(=N)N)C(=O)N[C@H](C(=O)N[C@@H](Cc1ccc(O)cc1)C(N)=O)[C@@H](C)O)C(C)C)[C@@H](C)O)
2 | 17 ratio | 6380 pM | 0.163 nM | – | – | – | – | K([γGlu-C20 diacid])CNTATCATQRLAEFLRHSSPNFGAIPSSTNVGPRTY-NH2 (disulfide 2-7; N-terminus assumed; SMILES CC[C@H](C)[C@H](NC(=O)[C@H](C)NC(=O)CNC(=O)[C@H](Cc1ccccc1)NC(=O)[C@H](CC(N)=O)NC(=O)[C@@H]1CCCN1C(=O)[C@H](CO)NC(=O)[C@H](CO)NC(=O)[C@H](Cc1c[nH]cn1)NC(=O)[C@H](CCCNC(=N)N)NC(=O)[C@H](CC(C)C)NC(=O)[C@H](Cc1ccccc1)NC(=O)[C@H](CCC(=O)O)NC(=O)[C@H](C)NC(=O)[C@H](CC(C)C)NC(=O)[C@H](CCCNC(=N)N)NC(=O)[C@H](CCC(N)=O)NC(=O)[C@@H](NC(=O)[C@H](C)NC(=O)[C@@H]1CSSC[C@H](NC(=O)[C@@H](N)CCCCNC(=O)CC[C@H](NC(=O)CCCCCCCCCCCCCCCCCCC(=O)O)C(=O)O)C(=O)N[C@@H](CC(N)=O)C(=O)N[C@@H]([C@@H](C)O)C(=O)N[C@@H](C)C(=O)N[C@@H]([C@@H](C)O)C(=O)N1)[C@@H](C)O)C(=O)N1CCC[C@H]1C(=O)N[C@@H](CO)C(=O)N[C@@H](CO)C(=O)N[C@H](C(=O)N[C@@H](CC(N)=O)C(=O)N[C@H](C(=O)NCC(=O)N1CCC[C@H]1C(=O)N[C@@H](CCCNC(=N)N)C(=O)N[C@H](C(=O)N[C@@H](Cc1ccc(O)cc1)C(N)=O)[C@@H](C)O)C(C)C)[C@@H](C)O)
3 | – | – | – | 0.386 nM | 8.9 | 3.43 nM | 0.597 nM | {C20 diacid-γGlu-γGlu}-KCNTATCATQRLAEFLRHSSPNFGAIPSSTNVGSNTY-NH2 (disulfide 2-7; SMILES CC[C@H](C)[C@H](NC(=O)[C@H](C)NC(=O)CNC(=O)[C@H](Cc1ccccc1)NC(=O)[C@H](CC(N)=O)NC(=O)[C@@H]1CCCN1C(=O)[C@H](CO)NC(=O)[C@H](CO)NC(=O)[C@H](Cc1c[nH]cn1)NC(=O)[C@H](CCCNC(=N)N)NC(=O)[C@H](CC(C)C)NC(=O)[C@H](Cc1ccccc1)NC(=O)[C@H](CCC(=O)O)NC(=O)[C@H](C)NC(=O)[C@H](CC(C)C)NC(=O)[C@H](CCCNC(=N)N)NC(=O)[C@H](CCC(N)=O)NC(=O)[C@@H](NC(=O)[C@H](C)NC(=O)[C@@H]1CSSC[C@H](NC(=O)[C@H](CCCCN)NC(=O)CC[C@H](NC(=O)CC[C@H](NC(=O)CCCCCCCCCCCCCCCCCCC(=O)O)C(=O)O)C(=O)O)C(=O)N[C@@H](CC(N)=O)C(=O)N[C@@H]([C@@H](C)O)C(=O)N[C@@H](C)C(=O)N[C@@H]([C@@H](C)O)C(=O)N1)[C@@H](C)O)C(=O)N1CCC[C@H]1C(=O)N[C@@H](CO)C(=O)N[C@@H](CO)C(=O)N[C@H](C(=O)N[C@@H](CC(N)=O)C(=O)N[C@H](C(=O)NCC(=O)N[C@@H](CO)C(=O)N[C@@H](CC(N)=O)C(=O)N[C@H](C(=O)N[C@@H](Cc1ccc(O)cc1)C(N)=O)[C@@H](C)O)C(C)C)[C@@H](C)O, also called compound 15)
